Test results: US20260102475A1

B1: imlifidase (IdeS, Immunoglobulin G-degrading enzyme of S. pyogenes) (protein)
chain: DSFSANQEIRYSEVTPYHVTSVWTKGVTPPANFTQGEDVFHAPYVANQGWYDITKTFNGKDDLLCGAATAGNMLHWWFDQNKDQIKRYLEEHPEKQKINFNGEQMFDVKEAIDTKNHQLDSKLFEYFKEKAFPYLSTKHLGVFPDHVIDMFINGYRLSLTNHGPTPVKEGSKDPRGGIFDAVFTRGDQSKLLTSRHDFKEKNLKEISDLIKKELTEGKALGLSHTYANVRINHVINLWGADFDSNGNLKAIYVTDSDSNASIGMKKYFVGVNSAGKVAISAKEIKEDNIGAQVLGLFTLSTGQDSWNQTN
B2: N240 (IdeS/IdeZ hybrid IgG cysteine protease) (protein)
chain: DDYQRNATEAYAKEVPHQITSVWTKGVTPPEQFTQGEDVIHAPYLAHQGWYDITKAFNGKDDLLCGAATAGNMLHWWFDQNKTEIEAYLSKHPEKQKIIFRNQELFDLKAAIDTKDSQTNSQLFNYFRDKAFPNLSARQLGVMPDLVLDMFINGYYLNVFKTQSTDVNRPYQDKDKRGGIFDAVFTRGNQTTLLTARHDLKNKGLNDISTIIKQELTEGRALALSHTYANVSISHVINLWGADFNAEGNLEAIYVTDSDANASIGMKKYFVGINAHGHVAISAKKIEGENIGAQVLGLFTLSSGKDIWQKLS

Tests used:
[1] = biological target: polyclonal IgG (substrate spiked into post-dose sera)
[2] = biological target: IgG in human serum (serum pool n=100; pre-dose patient serum)

Row | Protein | degradation of substrate spiked into sera collected after imlifidase dosing [1] | cleavage of IgG in serum, SDS-PAGE [2] | cleavage of IgG in pre-dose patient serum, SDS-PAGE and SAB-HLA [2]
1 | B1 | When polyclonal IgG was used as substrate, no degradation was seen in samples collected from 48 hours after dosing and forward | a concentration of around 2 µg/mL imlifidase was needed to start the cleavage in serum and concentrations below this did not result in any cleavage despite prolonged incubation | –
2 | B2 | – | – | N240 showed similar cleavage properties to imlifidase
